± gives the standard deviation of the averaged measurements.
Assay: total protein half-life in vivo (active degradation + dilution); higher = more stable protein
[1] = E. coli NCM3722 delta-clpP delta-lon delta-hslV, growth: N-lim chemostat, doubling time 6 h
[2] = E. coli NCM3722 delta-clpP, growth: N-lim chemostat, doubling time 6 h
[3] = E. coli NCM3722 delta-hslV, growth: N-lim chemostat, doubling time 6 h
[4] = E. coli NCM3722 delta-lon, growth: N-lim chemostat, doubling time 6 h
[5] = E. coli NCM3722 delta-smpB, growth: N-lim chemostat, doubling time 6 h
[6] = wild type E. coli NCM3722, growth: C-lim chemostat, doubling time 3 h
[7] = wild type E. coli NCM3722, growth: C-lim chemostat, doubling time 12 h
[8] = wild type E. coli NCM3722, growth: N-lim chemostat, doubling time 6 h
[9] = wild type E. coli NCM3722, growth: N-lim chemostat, doubling time 12 h
[10] = wild type E. coli NCM3722, growth: P-lim chemostat, doubling time 12 h
[11] = wild type E. coli NCM3722, growth: C-lim chemostat, doubling time 6 h
[12] = wild type E. coli NCM3722, growth: P-lim chemostat, doubling time 6 h

Row | Sequence | total protein half-life in vivo [1] [h] | total protein half-life in vivo [2] [h] | total protein half-life in vivo [3] [h] | total protein half-life in vivo [4] [h] | total protein half-life in vivo [5] [h] | total protein half-life in vivo [6] [h] | total protein half-life in vivo [7] [h] | total protein half-life in vivo [8] [h] | total protein half-life in vivo [9] [h] | total protein half-life in vivo [10] [h] | total protein half-life in vivo [11] [h] | total protein half-life in vivo [12] [h]
1 | MNLTLKESLVTRSRVFSPWTAFYFLQSLLINLGLGYPFSLLYTAAFTAILLLLWRTLPRVQKVLVGVSSLVAACYFPFAQAYGAPNFNTLLALHSTNMEESTEILTIFPWYSYLVGLFIFALGVIAIRRKKENEKARWNTFDSLCLVFSVATFFVAPVQNLAWGGVFKLKDTGYPVFRFAKDVIVNNNEVIEEQERMAKLSGMKDTWTVTAVKPKYQTYVVVIGESARRDALGAFGGHWDNTPFASSVNGLIFADYIAASGSTQKSLGLTLNRVVDGKPQFQDNFVTLANRAGFQTWWFSNQGQIGEYDTAIASIAKRADEVYFLKEGNFEADKNTKDEALLDMTAQVLAQEHSQPQLIVLHLMGSHPQACDRTQGKYETFVQSKETSCYLYTMTQTDDLLRKLYDQLRNSGSSFSLVYFSDHGLAFKERGKDVQYLAHDDKYQQNFQVPFMVISSDDKAHRVIKARRSANDFLGFFSQWTGIKAKEINIKYPFISEKKAGPIYITNFQLQKVDYNHLGTDIFDPKP | 4.78 ± 0.78 | 4.97 ± 0.21 | 5.49 ± 1.6 | 5.01 | 3.31 ± 0.29 | 2.94 ± 0.12 | 10.2 ± 1.1 | 4.59 ± 0.6 | 10.2 | 8.42 |  | 
2 | MKRKLFWICAVAMGMSAFPSFMTQATPATQPLINAEPAVAAQTEQNPQVGQVMPGVQGADAPVVAQNGPSRDVKLTFAQIAPPPGSMVLRGINPNGSIEFGMRSDEVVTKAMLNLEYTPSPSLLPVQSQLKVYLNDELMGVLPVTKEQLGKKTLAQMPINPLFISDFNRVRLEFVGHYQDVCEKPASTTLWLDVGRSSGLDLTYQTLNVKNDLSHFPVPFFDPSDNRTNTLPMVFAGAPDVGLQQASAIVASWFGSRSGWRGQNFPVLYNQLPDRNAIVFATNDKRPDFLRDHPAVKAPVIEMINHPQNPYVKLLVVFGRDDKDLLQAAKGIAQGNILFRGESVVVNEVKPLLPRKPYDAPNWVRTDRPVTFGELKTYEEQLQSSGLEPAAINVSLNLPPDLYLMRSTGIDMDINYRYTMPPVKDSSRMDISLNNQFLQSFNLSSKQEANRLLLRIPVLQGLLDGKTDVSIPALKLGATNQLRFDFEYMNPMPGGSVDNCITFQPVQNHVVIGDDSTIDFSKYYHFIPMPDLRAFANAGFPFSRMADLSQTITVMPKAPNEAQMETLLNTVGFIGAQTGFPAINLTVTDDGSTIQGKDADIMIIGGIPDKLKDDKQIDLLVQATESWVKTPMRQTPFPGIVPDESDRAAETRSTLTSSGAMAAVIGFQSPYNDQRSVIALLADSPRGYEMLNDAVNDSGKRATMFGSVAVIRESGINSLRVGDVYYVGHLPWFERVWYALANHPILLAVLAAISVILLAWVLWRLLRIISRRRLNPDNE | 6.42 ± 0.47 | 7.04 ± 0.67 | 6.15 ± 0.65 | 6.28 ± 0.15 | 5.904 ± 0.057 | 3.17 ± 0.033 | 10.7 ± 1.2 | 5.8 ± 0.2 | 11.4 ± 0.44 | 11.8 ± 0.31 | 6.1 ± 0.11 | 6.3 ± 0.39
3 | MASISSLGVGSGLDLSSILDSLTAAQKATLTPISNQQSSFTAKLSAYGTLKSALTTFQTANTALSKADLFSATSTTSSTTAFSATTAGNAIAGKYTISVTHLAQAQTLTTRTTRDDTKTAIATSDSKLTIQQGGDKDPITIDISAANSSLSGIRDAINNAKAGVSASIINVGNGEYRLSVTSNDTGLDNAMTLSVSGDDALQSFMGYDASASSNGMEVSVAAQNAQLTVNNVAIENSSNTISDALENITLNLNDVTTGNQTLTITQDTSKAQTAIKDWVNAYNSLIDTFSSLTKYTAVDAGADSQSSSNGALLGDSTLRTIQTQLKSMLSNTVSSSSYKTLAQIGITTDPSDGKLELDADKLTAALKKDASGVGALIVGDGKKTGITTTIGSNLTSWLSTTGIIKAATDGVSKTLNKLTKDYNAASDRIDAQVARYKEQFTQLDVLMTSLNSTSSYLTQQFENNSNSK |  | > 8 | > 8 |  | > 8 | 1.4 ± 0.12 | 0.906 ± 0.44 |  | > 16 | > 16 | 0.627 ± 0.1 | > 8
4 | MIQSQINRNIRLDLADAILLSKAKKDLSFAEIADGTGLAEAFVTAALLGQQALPADAARLVGAKLDLDEDSILLLQMIPLRGCIDDRIPTDPTMYRFYEMLQVYGTTLKALVHEKFGDGIISAINFKLDVKKVADPEGGERAVITLDGKYLPTKPF | 5.03 ± 0.21 |  |  | 5.12 |  |  | 10.6 ± 0.58 | 3.64 | 11.9 | 11.1 | 5.48 | 
5 | MNPLKAGDIAPKFSLPDQDGEQVNLTDFQGQRVLVYFYPKAMTPGCTVQACGLRDNMDELKKAGVDVLGISTDKPEKLSRFAEKELLNFTLLSDEDHQVCEQFGVWGEKSFMGKTYDGIHRISFLIDADGKIEHVFDDFKTSNHHDVVLNWLKEHA [P0AE52] | 5.42 ± 0.21 | 5.26 ± 0.76 | 4.92 ± 0.074 | 6.45 ± 1.5 | 4.25 ± 0.079 | 2.85 ± 0.64 | 7.64 ± 0.72 | 4.08 ± 0.36 | 7.49 ± 0.41 | 11 ± 0.55 | 5.36 ± 0.065 | 4.38 ± 0.081
6 | MRIVTAAVMASTLAVSSLSHAAEVGSGDNWHPGEELTQRSTQSHMFDGISLTEHQRQQMRDLMQQARHEQPPVNVSELETMHRLVTAENFDENAVRAQAEKMANEQIARQVEMAKVRNQMYRLLTPEQQAVLNEKHQQRMEQLRDVTQWQKSSSLKLLSSSNSRSQ [P0AE85] | 2.56 ± 0.11 | 4.81 | 1.65 | > 8 | 2.394 ± 0.017 |  |  |  | 3.54 ± 0.086 | 2.99 | 2.391 ± 0.0025 | 
7 | MTNYSLRARMMILILAPTVLIGLLLSIFFVVHRYNDLQRQLEDAGASIIEPLAVSTEYGMSLQNRESIGQLISVLHRRHSDIVRAISVYDENNRLFVTSNFHLDPSSMQLGSNVPFPRQLTVTRDGDIMILRTPIISESYSPDESPSSDAKNSQNMLGYIALELDLKSVRLQQYKEIFISSVMMLFCIGIALIFGWRLMRDVTGPIRNMVNTVDRIRRGQLDSRVEGFMLGELDMLKNGINSMAMSLAAYHEEMQHNIDQATSDLRETLEQMEIQNVELDLAKKRAQEAARIKSEFLANMSHELRTPLNGVIGFTRLTLKTELTPTQRDHLNTIERSANNLLAIINDVLDFSKLEAGKLILESIPFPLRSTLDEVVTLLAHSSHDKGLELTLNIKSDVPDNVIGDPLRLQQIITNLVGNAIKFTENGNIDILVEKRALSNTKVQIEVQIRDTGIGIPERDQSRLFQAFRQADASISRRHGGTGLGLVITQKLVNEMGGDISFHSQPNRGSTFWFHINLDLNPNIIIEGPSTQCLAGKRLAYVEPNSAAAQCTLDILSETPLEVVYSPTFSALPPAHYDMMLLGIAVTFREPLTMQHERLAKAVSMTDFLMLALPCHAQVNAEKLKQDGIGACLLKPLTPTRLLPALTEFCHHKQNTLLPVTDESKLAMTVMAVDDNPANLKLIGALLEDMVQHVELCDSGHQAVERAKQMPFDLILMDIQMPDMDGIRACELIHQLPHQQQTPVIAVTAHAMAGQKEKLLGAGMSDYLAKPIEEERLHNLLLRYKPGSGISSRVVTPEVNEIVVNPNATLDWQLALRQAAGKTDLARDMLQMLLDFLPEVRNKVEEQLVGENPEGLVDLIHKLHGSCGYSGVPRMKNLCQLIEQQLRSGTKEEDLEPELLELLDEMDNVAREASKILG [P0AEC5] | 6.36 ± 0.23 | 5.96 ± 0.43 | 6.35 ± 0.93 | 6.05 ± 1.2 | 5.8 ± 0.066 | 3.45 ± 0.058 | 10.5 ± 1.6 |  | 13.1 ± 0.83 | 11.4 ± 0.16 | 5.985 ± 0.046 | 6.32 ± 0.066
